Test results from patent US20160362487A1 (Regeneron, published 2016).

T1: human IL-33 (R&D Systems, #3625-IL-010/CF) (human, UniProt O95760 112-270)
T1 construct: Commercial recombinant protein; also called hIL-33; interleukin-33
T1 sequence (looked up): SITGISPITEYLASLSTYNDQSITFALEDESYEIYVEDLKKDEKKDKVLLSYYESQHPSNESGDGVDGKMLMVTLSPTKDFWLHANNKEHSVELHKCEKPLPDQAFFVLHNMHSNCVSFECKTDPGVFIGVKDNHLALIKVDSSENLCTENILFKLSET

T2: cynomolgus monkey IL-33 expressed with a C-terminal hexahistidine tag (cynomolgus monkey)
T2 construct: also called MfIL-33-6His; Mf-IL-33-6His
T2 chain: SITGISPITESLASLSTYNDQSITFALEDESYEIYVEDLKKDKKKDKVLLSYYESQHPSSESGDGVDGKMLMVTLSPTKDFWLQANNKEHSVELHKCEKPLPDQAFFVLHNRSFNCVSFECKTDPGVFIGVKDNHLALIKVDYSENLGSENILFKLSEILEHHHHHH


Legend:
[1] = biological target: T1, human IL-33 (R&D Systems, …); assay: SPR 25C, pH6.0 chase, mAb captured
Experimental: (§1) Equilibrium dissociation constants (KD values) for IL-33 binding to purified anti-IL-33 monoclonal antibodies were determined using a real-time surface plasmon resonance biosensor using a Biacore 4000 instrument. The Biacore sensor surface was first derivatized by amine coupling with either a polyclonal rabbit anti-mouse antibody (GE, # BR-1008-38) or with a monoclonal mouse anti-human Fc antibody (GE, # BR-1008-39) to capture anti-IL-33 monoclonal antibodies expressed with mouse or with human IgG4 constant regions, respectively. All Biacore binding studies were performed in 0.01M ADA pH 7.4, 0.15M NaCl, 3 mM EDTA, and 0.05% v/v Surfactant Tween-20 (ABS-ET running buffer). […] Association of either hIL-33 or MfIL-33-6His to the captured monoclonal antibody was monitored for 4 minutes and their dissociation in ABS-ET running buffer was monitored for 10 minutes. The effect of reduced pH on the binding of each anti-IL-33 antibody to either hIL-33 or MfIL-33-6His was studied using an in-line pH chase assay format in 0.01M ADA pH 6.0, 0.15M NaCl, 3 mM EDTA, and 0.05% v/v Surfactant Tween-20 (ABS-ET pH6 buffer). To achieve this, association of either hIL-33 or MfIL-33-6His to the captured monoclonal antibody was monitored for 4 minutes in ABS-ET running buffer. Following a 30 second dissociation of either hIL-33 or MfIL-33-6His in ABS-ET running buffer, ABS-ET pH6 buffer was injected for 3 minutes, and the analyte dissociation under the low-pH conditions was measured. All the binding kinetic experiments were performed at both 25° C. and 37° C. Kinetic association (kₐ) and dissociation (kd) constants were determined by fitting the real-time sensorgrams to a 1:1 binding model using Scrubber 2.0c curve fitting software. Binding dissociation equilibrium constants (KD) and dissociative half-lives (t½) were calculated from the kinetic rate constants as: […]

[2] = biological target: T2, cynomolgus monkey IL-33 expressed with …; assay: SPR 25C, pH6.0 chase, mAb captured
Experimental: as §1

[3] = biological target: T2, cynomolgus monkey IL-33 expressed with …; assay: BLI; mAb-1 on captured MfIL-33-6His
Experimental: Binding competition between a panel of different anti-IL-33 monoclonal antibodies was determined using a real time, label-free bio-layer interferometry assay on an Octet® HTX biosensor (ForteBio, A Division of Pall Life Sciences). The experiment was performed at 25° C. using a buffer of 0.01M HEPES pH7.4, 0.15M NaCl, 3 mM EDTA, 0.05% v/v Surfactant Tween-20, and 0.1 mg/ml BSA (HBS-ET kinetics buffer) with the plate shaking at a speed of 1000 rpm. […] The antigen-captured biosensors were then saturated with a first anti-IL-33 monoclonal antibody (subsequently referred to as mAb-1) by immersion into wells containing 50 μg/mL solution of mAb-1 for 5 minutes. The biosensors were then dipped into wells containing a 50 μg/mL solution of a second anti-IL-33 monoclonal antibody (subsequently referred to as mAb-2) for 4 minutes. The biosensors were washed in HBS-ET kinetics buffer in between every step of the experiment. The real-time binding response was monitored during the experiment, and the maximum binding response for each binding step was recorded. The response of mAb-2 binding to MfIL-33-6His pre-complexed with mAb-1 was measured, and competitive/non-competitive behavior of different anti-IL-33 monoclonal antibodies with respect to each other was determined.

[4] = biological target: T3, pre-formed complex of hIL-33 and captured hST2-MMH (human, UniProt O95760 112-270); assay: SPR 25C, 100 nM mAb over hIL-33/hST2-MMH complex
T3 construct: Ligand-receptor complex on the sensor: hST2-MMH captured by anti-myc mAb and saturated with 100 nM hIL-33; also called hIL-33 pre-complexed with hST2-MMH
Experimental: The ability of anti-IL-33 antibodies to bind to a pre-formed complex of IL-33 with ST2 was tested using Biacore T-200 instrument equipped with a real-time surface plasmon resonance biosensor. The experiment was performed at 25° C. with a running buffer composed of 0.01M HEPES pH 7.4, 0.15M NaCl, 3 mM EDTA, and 0.05% v/v Surfactant Tween-20 (HBS-ET). […] The captured hST2-MMH surface was then saturated by injecting 100 nM of human IL-33 (hIL-33; R&D Systems, #3625-IL-010/CF) for 3 minutes followed by a 3 minute injection of a 100 nM solution of the anti-IL-33 monoclonal antibody. The real-time binding response was monitored during the entire course of the experiment, and the observed binding response at 3 minutes after injection of anti-IL-33 antibody to the pre-formed complex of hIL-33 and captured hST2-MMH was recorded and tabulated and shown in Table 7. No non-specific binding of anti-IL-33 monoclonal antibody to the anti-myc tag capture surface was observed.

| koff [1] [s⁻¹] | t½ [1] [min] | t½ Ratio (pH 7.4/pH 6.0) [1] | koff [2] [s⁻¹] | t½ [2] [min] | t½ Ratio (pH 7.4/pH 6.0) [2] | mAb-1 Binding (nm) [3] [nm] | Antibody Binding Response (RU) [4] [RU] | Binder |
| --- | --- | --- | --- | --- | --- | --- | --- | --- |
| 0.00121 | 10 | 3.5 | 0.00145 | 8 | 0.4 | 0.62 | -1 | H4H9676P (antibody, human IgG4, V domains shown, Human IgG4 Fc (H4H)) VH: EVQLVESGGGLVQPGGSLRLSCSASGFTFSSYAMNWVRQAPGKGLEWVTAISGSGGGTYYADSVKGRFTISRDNSKNSLFLQLNSLRAEDTAVYYCAKQTYTSSWYGGFDIWGQGTMVTVSS VL: DIQMTQSPSSVSASVGDRVTITCRASQGFSSWLAWYQQIPGKAPKLLIYAASRLQSGVPSRFRGSGSGTDFTLTISSLQPEDFATYYCQQANSFPLTFGGGTKVEIK |
| 0.000187 | 62 | 0.7 | 0.00152 | 8 | 1.2 | 0.5 | -4 | H1M9559N (antibody, mouse IgG1, V domains shown, Human variable domains, mouse IgG1 Fc (H1M)) VH: QVQLVESGGGVVQPGRSLRLSCAASGFTFSSYGMHWVRQAPGKGLEWVAVIWYDGRNKYYTDSVKGRFTISRDNSKNTLYLQMDSLRAEDTAVYYCARERYISSYYGGFDPWGQGALVTVSS VL: DIQMTQSPSSVSASVGDRVTITCRASQGISSWLAWYQQKPGKAPKVLIYAASSLQSGVPSRFSGSGSGTDFTLTISSLQPEDFATYYCQQANSFPFTFGPGTKLDIK |
